Laboratory results reported in patent US7799901B2, “Modulators of the function of FAS receptors and other proteins” (Yeda Research and Development Co. Ltd., priority 1995, dated 2010).

System: p55-R-induced cytotoxicity in 293-EBNA cells
Test: Death of 293-EBNA cells induced by over-expression of p55-R
Assay type: cell-based, human
Conditions: co-transfection
Method: In brief, 293-EBNA cells, MCF7 human breast carcinoma cells and HeLa HtTA-1 cells were grown in Dulbecco's modified Eagle's minimal essential medium supplemented with 10% fetal calf serum, nonessential amino acids, 100 U/ml penicillin and 100 μg/ml streptomycin. Cell tissue culture dishes (5×10^5 293-EBNA cells, 3×10^5 s MCF7 cells or 3×10^5 HeLa cells in 6-cm dishes) were transiently transfected, using the calcium phosphate precipitation method, with the cDNAs of the indicated proteins together with the β-galactosidase expression vector. In the experiments presented in FIGS. 14A-D and 15, each dish was transfected with 3.5 μg of the indicated MACH construct and 1.5 μg of pSV-β-gal. In the experiments presented in FIGS. 16A-D and 17-19, each dish was transfected with 2.5 μg of the indicated MACH or MORT1 construct (or, as control, empty vector) and 1.5 μg of pSV-β-gal. The cells were rinsed 6 to 10 h after transfection. The 293-EBNA and MCF7 cells were incubated for a further 18 h without additional treatment. […] The extent of cell death at the end of the incubation periods was assessed by determination of β-galactosidase expression, as described by Kumar et al, 1994. […]
In particular, FIGS. 16A-D show morphology of 293-EBNA cells in which cell death was induced by transient expression of a chimera comprised of the extracellular domain of the p55-R (amino acids 1-168) fused to the transmembrane and intracellular domains of Fas/APO1 (amino acids 153-319) (p55-Fas chimera) (FIGS. 16A and 16B), or by expression of the p55-R (FIGS. 16C and 16D), and of cells that were protected from these cytotoxic effects by their simultaneous transfection with MACHα1 (C360S) (FIGS. 16B and 16D). […] FIG. 17 illustrates the quantification of death induced in 293-EBNA cells by their transfection with p55-Fas chimera or with p55-R, together with an empty vector, a MORT1 deletion mutant lacking the MACH-binding region (MORT1 (92-208)), or MACHα molecules containing a nonfunctional CED3/ICE region. […] Data are from at least two independent experiments and are expressed as in FIGS. 14A-F and 15.

B1: MACHα1 (C360S): MACHα1 mutant in which the catalytic cysteine Cys360 is replaced by Ser (protein)
chain: MDFSRNLYDIGEQLDSEDLASLKFLSLDYIPQRKQEPIKDALMLFQRLQEKRMLEESNLSFLKELLFRINRLDLLITYLNTRKEEMERELQTPGRAQISAYRVMLYQISEEVSRSELRSFKFLLQEEISKCKLDDDMNLLDIFIEMEKRVILGEGKLDILKRVCAQINKSLLKIINDYEEFSKERSSSLEGSPDEFSNGEELCGVMTISDSPREQDSESQTLDKVYQMKSKPRGYCLIINNHNFAKAREKVPKLHSIRDRNGTHLDAGALTTTFEELHFEIKPHDDCTVEQIYEILKIYQLMDHSNMDCFICCILSHGDKGIIYGTDGQEAPIYELTSQFTGLKCPSLAGKPKVFFIQASQGDNYQKGIPVETDSEEQPYLEMDLSSPQTRYIPDEADFLLGMATVNNCVSYRNPAEGTWYIQSLCQSLRERCPRGDDILTILTEVNYEVSNKDDKKNMGKQMPQPTFTLRKKLVFPSD
protection against p55-R-induced cytotoxicity: protected
